Like-named read-outs stand apart in the source and are kept apart here. Bridges are numbered along the chain shown (N, C = ends). [ ]: non-standard residue; d: D form. glutaryl‑PEG9‑azide = glutaryl-PEG9-azide group on the N-terminal amine; L6P = lysine side chain carrying PEG6-NH2 (diglycolyl-PEG-amine); hSer = N[C@@H](CCO)C(=O)O; Nle = CCCC[C@H](N)C(=O)O
Assays:
[1] = biological target: T1, IL-7 receptor (IL-7Rα/γc heterodimer) on primary human T cells (human, UniProt P16871 21-459; P31785 23-369); experiment: cell-based or functional assay
T1 sequence (looked up) 1: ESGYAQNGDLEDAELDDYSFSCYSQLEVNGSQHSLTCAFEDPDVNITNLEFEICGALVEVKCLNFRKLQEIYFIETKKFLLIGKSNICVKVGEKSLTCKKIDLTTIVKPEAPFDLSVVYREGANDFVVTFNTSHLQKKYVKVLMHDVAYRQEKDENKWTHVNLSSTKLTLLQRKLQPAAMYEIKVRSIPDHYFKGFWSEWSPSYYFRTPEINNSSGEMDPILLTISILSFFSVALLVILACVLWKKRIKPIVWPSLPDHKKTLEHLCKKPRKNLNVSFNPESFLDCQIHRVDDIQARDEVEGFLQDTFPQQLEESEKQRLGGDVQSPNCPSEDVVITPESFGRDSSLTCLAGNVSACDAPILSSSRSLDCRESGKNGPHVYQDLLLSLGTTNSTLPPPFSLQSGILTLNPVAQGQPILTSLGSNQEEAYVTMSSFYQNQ
T1 sequence (looked up) 2: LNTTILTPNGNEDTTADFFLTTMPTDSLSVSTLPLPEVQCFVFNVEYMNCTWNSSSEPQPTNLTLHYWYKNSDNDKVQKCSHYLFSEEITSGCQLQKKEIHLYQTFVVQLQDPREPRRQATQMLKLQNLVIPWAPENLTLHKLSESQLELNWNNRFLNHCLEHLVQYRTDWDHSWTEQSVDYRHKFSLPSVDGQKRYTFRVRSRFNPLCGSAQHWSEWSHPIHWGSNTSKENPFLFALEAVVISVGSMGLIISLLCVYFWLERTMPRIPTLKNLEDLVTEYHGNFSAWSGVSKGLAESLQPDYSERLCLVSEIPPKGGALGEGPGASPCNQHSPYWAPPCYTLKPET

[2] = biological target: T2, Recombinant Human IL-7R alpha/CD127 Fc Avi-tag Protein, CF (R&D Systems #AVI10317-050) (human, UniProt P16871 21-239); experiment: BLI (Octet R8); CD127-Fc-Avi loaded on SAX2 sensor, IL-7 polypeptide as analyte
T2 construct: Bought construct; It was loaded on streptavidin (SAX/SAX2) biosensors; not shown: Fc and Avi-tag of a bought protein
T2 sequence (looked up): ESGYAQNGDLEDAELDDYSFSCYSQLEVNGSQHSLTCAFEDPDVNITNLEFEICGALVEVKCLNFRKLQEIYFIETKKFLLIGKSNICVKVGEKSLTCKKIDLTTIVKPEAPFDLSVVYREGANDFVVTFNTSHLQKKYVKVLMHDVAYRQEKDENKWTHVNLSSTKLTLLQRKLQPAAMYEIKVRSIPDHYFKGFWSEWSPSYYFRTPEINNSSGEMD

[3] = biological target: T2, Recombinant Human IL-7R alpha/CD127 Fc …; experiment: as above; remark: listed apart in the source
[4] = biological target: T2, Recombinant Human IL-7R alpha/CD127 Fc …; experiment: as above; remark: listed apart in the source
[5] = biological target: T2, Recombinant Human IL-7R alpha/CD127 Fc …; experiment: as above; remark: listed apart in the source
[6] = biological target: T2, Recombinant Human IL-7R alpha/CD127 Fc …; experiment: as above; remark: listed apart in the source
[7] = biological target: T2, Recombinant Human IL-7R alpha/CD127 Fc …; experiment: as above; remark: listed apart in the source

B1: CMP-035, recombinant human native IL-7 with His-tag (ligand)
chain: DCDIEGKDGKQYESVLMVSIDQLLDSMKEIGSNCLNNEFNFFKRHICDANKEGMFLFRAARKLRQFLKMNSTGDFDLHLLKVSEGTTILLNCTGQVKGRKPAALGEAQPTKSLEENKSLKEQKKLNDLCFLKRLLQEIKTCWNKILMGTKEHVDHHHHHH
notes: also called WT IL-7 His; recombinant IL-7 (WT)
- EC50 pSTAT5, CD4 Memory [1]: 0.001 nM
- EC50 pSTAT5, CD4 Naive [1]: 0.001 nM
- EC50 pSTAT5, CD4 Treg [1]: 0.032 nM
- EC50 pSTAT5, CD8 Memory [1]: 0.006 nM
- EC50 pSTAT5, CD8 Naive [1]: 0.002 nM
- Kd [2]: 1.28 nM
- koff [2]: 0.00698 s⁻¹
- kon [2]: 5.47e+06 M⁻¹ s⁻¹

B2: CMP-117, recombinant IL-7 Q11F with His-tag (ligand)
chain: DCDIEGKDGKFYESVLMVSIDQLLDSMKEIGSNCLNNEFNFFKRHICDANKEGMFLFRAARKLRQFLKMNSTGDFDLHLLKVSEGTTILLNCTGQVKGRKPAALGEAQPTKSLEENKSLKEQKKLNDLCFLKRLLQEIKTCWNKILMGTKEHVDHHHHHH
- EC50 pSTAT5, CD4 Memory [1]: 0.001 nM
- EC50 pSTAT5, CD4 Naive [1]: 0.001 nM
- EC50 pSTAT5, CD4 Treg [1]: 0.01 nM
- EC50 pSTAT5, CD8 Memory [1]: 0.002 nM
- EC50 pSTAT5, CD8 Naive [1]: 0.001 nM

B3: CMP-114, CMP-108 conjugated to 30 kDa DBCO PEG at the N-terminus (ligand)
chain: DCDIEGKDGKQYESVL[Nle]VSIDQLLDS[Nle]KEIGSNCL[hSer]NEFNFFKRHICDANKEG[Nle]FLFRAARKLRQFLK[Nle]NSTGDF[hSer]LHLLKVSEGTTILLNCTGQVKGRKPAALGEAQPTKSL[hSer]ENKSLKEQKKLNDLCFLKRLLQEIKTCWNKIL[Nle]GTKEH-NH2
modifications: disulfide 34-129, 47-141, 2-92; not fully specified (N-terminus); also: N-terminal azide conjugated to 30 kDa DBCO-PEG
- EC50 pSTAT5, CD4 Memory [1]: 0.004 nM
- EC50 pSTAT5, CD4 Naive [1]: 0.002 nM
- EC50 pSTAT5, CD4 Treg [1]: 0.01 nM
- EC50 pSTAT5, CD8 Memory [1]: 0.004 nM
- EC50 pSTAT5, CD8 Naive [1]: 0.005 nM

B4: CMP-107, synthetic IL-7 V15W of SEQ ID NO: 5 with glutaryl-PEG9-azide at the N-terminus (ligand)
chain: {glutaryl‑PEG9‑azide}-DCDIEGKDGKQYESWL[Nle]VSIDQLLDS[Nle]KEIGSNCL[hSer]NEFNFFKRHICDANKEG[Nle]FLFRAARKLRQFLK[Nle]NSTGDF[hSer]LHLLKVSEGTTILLNCTGQVKGRKPAALGEAQPTKSL[hSer]ENKSLKEQKKLNDLCFLKRLLQEIKTCWNKIL[Nle]GTKEH-NH2
modifications: disulfide 34-129, 47-141, 2-92
notes: also called synthetic IL-7 with V15W
- EC50 pSTAT5, CD4 Memory [1]: 0.4 pM
- EC50 pSTAT5, CD4 Naive [1]: 0.001 nM
- EC50 pSTAT5, CD4 Treg [1]: 1.2 nM
- EC50 pSTAT5, CD8 Memory [1]: 0.034 nM
- EC50 pSTAT5, CD8 Naive [1]: 0.006 nM
- Kd [3]: 22.5 nM
- koff [3]: 0.0259 s⁻¹
- kon [3]: 1.15e+06 M⁻¹ s⁻¹

B5: CMP-200, IL-7 syntein missing C2-C92 disulphide bond, N-terminus with glutaric acid and azido-PEG (ligand)
chain: {glutaryl‑PEG9‑azide}-DSDIEGKDGKQYESVL[Nle]VSIDQLLDS[Nle]KEIGSNCL[hSer]NEFNFFKRHICDANKEG[Nle]FLFRAARKLRQFLK[Nle]NSTGDF[hSer]LHLLKVSEGTTILLNSTGQVKGRKPAALGEAQPTKSL[hSer]ENKSLKEQKKLNDLCFLKRLLQEIKTCWNKIL[Nle]GTKEH-NH2
modifications: disulfide 34-129, 47-141
notes: also called CMP-200-001
- EC50 pSTAT5, CD4 Memory [1]: 0.03 nM
- EC50 pSTAT5, CD4 Naive [1]: 0.02 nM
- EC50 pSTAT5, CD4 Treg [1]: 0.14 nM
- EC50 pSTAT5, CD8 Memory [1]: 0.04 nM
- EC50 pSTAT5, CD8 Naive [1]: 0.03 nM
- Kd [4]: 7.18 nM
- koff [4]: 0.00879 s⁻¹
- kon [4]: 1.22e+06 M⁻¹ s⁻¹

B6: CMP-201, synthetic IL-7 variant of Example 2V (ligand)
chain: {glutaryl‑PEG9‑azide}-DSDIEGKDGKQYESVL[Nle]VSIDQLLDS[Nle]KEIGSNCL[hSer]NEFNFFKRHICDANKEG[Nle]FLFRAARKLRQFLK[Nle]NSTGDF[hSer]LHLLKVSENTTILLNSTGQVKGRKPAALGEAQPTKSL[hSer]ENKSLKEQKKLNDLCFLKRLLQEIKTCWNKIL[Nle]GTKEH-NH2
modifications: disulfide 34-129, 47-141
- EC50 pSTAT5, CD4 Memory [1]: 0.7 nM
- EC50 pSTAT5, CD4 Naive [1]: 0.8 nM
- EC50 pSTAT5, CD4 Treg [1]: 4.45 nM
- EC50 pSTAT5, CD8 Memory [1]: 1.7 nM
- EC50 pSTAT5, CD8 Naive [1]: 1.2 nM
- Kd [5]: 19.2 nM
- koff [5]: 0.00996 s⁻¹
- kon [5]: 518000 M⁻¹ s⁻¹

B7: CMP-113, synthetic IL-7 C2A, C92A of SEQ ID NO: 10 with glutaryl-PEG9-azide at the N-terminus (ligand)
chain: {glutaryl‑PEG9‑azide}-DADIEGKDGKQYESVL[Nle]VSIDQLLDS[Nle]KEIGSNCL[hSer]NEFNFFKRHICDANKEG[Nle]FLFRAARKLRQFLK[Nle]NSTGDF[hSer]LHLLKVSEGTTILLNATGQVKGRKPAALGEAQPTKSL[hSer]ENKSLKEQKKLNDLCFLKRLLQEIKTCWNKIL[Nle]GTKEH
modifications: ends and bridges not checked
- EC50 pSTAT5, CD4 Memory [1]: 0.04 nM
- EC50 pSTAT5, CD4 Naive [1]: 0.04 nM
- EC50 pSTAT5, CD4 Treg [1]: 0.18 nM
- EC50 pSTAT5, CD8 Memory [1]: 0.06 nM
- EC50 pSTAT5, CD8 Naive [1]: 0.05 nM

B8: CMP-036, synthetic IL-7 of SEQ ID NO: 3 (no N-terminal conjugation handle) (ligand)
chain: DCDIEGKDGKQYESVL[Nle]VSIDQLLDS[Nle]KEIGSNCL[hSer]NEFNFFKRHICDANKEG[Nle]FLFRAARKLRQFLK[Nle]NSTGDF[hSer]LHLLKVSEGTTILLNCTGQVKGRKPAALGEAQPTKSL[hSer]ENKSLKEQKKLNDLCFLKRLLQEIKTCWNKIL[Nle]GTKEH
modifications: ends and bridges not checked
- EC50 pSTAT5, CD4 Memory [1]: 0.005 nM
- EC50 pSTAT5, CD4 Naive [1]: 0.005 nM
- EC50 pSTAT5, CD4 Treg [1]: 0.015 nM
- EC50 pSTAT5, CD8 Memory [1]: 0.006 nM
- EC50 pSTAT5, CD8 Naive [1]: 0.006 nM

B9: CMP-111, synthetic IL-7 K81(L6P), G85N of SEQ ID NO: 8 with glutaryl-PEG9-azide at the N-terminus (ligand)
chain: {glutaryl‑PEG9‑azide}-DCDIEGKDGKQYESVL[Nle]VSIDQLLDS[Nle]KEIGSNCL[hSer]NEFNFFKRHICDANKEG[Nle]FLFRAARKLRQFLK[Nle]NSTGDF[hSer]LHLLK(L6P)VSENTTILLNCTGQVKGRKPAALGEAQPTKSL[hSer]ENKSLKEQKKLNDLCFLKRLLQEIKTCWNKIL[Nle]GTKEH-NH2
modifications: disulfide 34-129, 47-141, 2-92
- EC50 pSTAT5, CD4 Memory [1]: 11.2 nM
- EC50 pSTAT5, CD4 Naive [1]: 11.6 nM
- EC50 pSTAT5, CD4 Treg [1]: 82.3 nM
- EC50 pSTAT5, CD8 Memory [1]: 16.2 nM
- EC50 pSTAT5, CD8 Naive [1]: 12.3 nM
- koff [6]: 0.0353 s⁻¹
- kon [6]: 1.41e+06 M⁻¹ s⁻¹
- Kd [7]: 16.5 nM
- koff [7]: 0.0318 s⁻¹
- kon [7]: 1.92e+06 M⁻¹ s⁻¹

From patent US20240424127A1 (BRIGHT PEAK THERAPEUTICS, published 2024)
